Assay [1] concerns the target BST2 as expressed endogenously on the surface of human cell lines (B-LCL, MM1, U266, MCF-10A, MCF7, MDA-MB-231, T47D) (human) (UniProt Q10589). Briefly: flow cytometry on MM1 cells, mAb 1 ug/ml. On the technique in general: In flow cytometry, cells or beads pass a laser one at a time.
Assay [2] has the same target. Briefly: flow cytometry on U266 cells, mAb 1 ug/ml.
The target is the same in assay [3]. Briefly: flow cytometry on MCF7 cells, mAb 1 ug/ml.
Assay [4] shares this target. Briefly: flow cytometry on T47D cells, mAb 1 ug/ml.
The target is the same in assay [5]. Briefly: flow cytometry on B-LCL cells, mAb 1 ug/ml.
Assay [6] shares this target. Briefly: flow cytometry on MCF-10A cells, mAb 1 ug/ml.
The target is the same in assay [7]. Briefly: flow cytometry on MDA-MB-231 cells, mAb 1 ug/ml.
The target is the same in assay [8]. Briefly: flow cytometry on MM1 cells, mAb not preincubated.
Assay [9] addresses BST2 medium isoform (BST2-H, 158 amino acids) expressed on HEK293 transfectants. Briefly: flow cytometry, mAb 1 ug/ml on HEK293-medium cells.
Assay [10] has as its target BST2 as expressed endogenously on the surface of human cell lines (B-LCL, MM1, U266, MCF-10A, MCF7, MDA-MB-231, T47D) (human) (UniProt Q10589). Briefly: flow cytometry on MM1 cells, mAb preincubated with Spartan protein.
For assay [11] the target is unchanged. Briefly: flow cytometry on MM1 cells, mAb preincubated with recombinant BST2 protein as competitor.
Assay [12] deals with BST2 long isoform (BST2-D, full length BST2, 180 amino acids) expressed on HEK293 transfectants (human) (UniProt Q10589). Briefly: flow cytometry, HEK293 long transfectant, 1 ug/ml antibody, APC-conjugated secondary antibody.
Sequence of BST2 long isoform (BST2-D, full length BST2, 180 amino acids) expressed on HEK293 transfectants (human) (Q10589 1-161 limits assumed): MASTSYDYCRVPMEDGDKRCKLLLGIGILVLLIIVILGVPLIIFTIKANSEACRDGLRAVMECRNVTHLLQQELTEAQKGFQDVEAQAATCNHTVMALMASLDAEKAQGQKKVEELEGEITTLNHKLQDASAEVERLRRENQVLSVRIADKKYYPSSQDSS
The target in assay [13] is BST2 as expressed endogenously on the surface of human cell lines (B-LCL, MM1, U266, MCF-10A, MCF7, MDA-MB-231, T47D) (human) (UniProt Q10589). Briefly: flow cytometry, MCF7 cells, APC-conjugated secondary antibody (the text prints 34.7% for the same panel).
Sequence of BST2 as expressed endogenously on the surface of human cell lines (B-LCL, MM1, U266, MCF-10A, MCF7, MDA-MB-231, T47D) (human) (Q10589 1-161, stated change not applied): as the sequence (Q10589 1-161 limits assumed) above
In assay [14] the target is BST2 in human tissue microarray cores. Briefly: immunohistochemistry, tissue microarray #72070, antigen retrieval H1; Placenta: 0 positive of 1 tested specimen.
Sequence of BST2 in human tissue microarray cores (chain, as listed by the source limits assumed): as the sequence (Q10589 1-161 limits assumed) above
For assay [15], the target named is BST2 as expressed endogenously on the surface of human cell lines (B-LCL, MM1, U266, MCF-10A, MCF7, MDA-MB-231, T47D) (human) (UniProt Q10589). Briefly: flow cytometry dot plot, T47D-WT cells, 26F8 at 2 ug/ml and APC-conjugated secondary antibody; Q4 (unstained) 2.71.
Assay [16] deals with BST2 in human tissue microarray cores. Briefly: immunohistochemistry, tissue microarray #72070, antigen retrieval H1; BIDC stroma: 0 positive of 40 tested specimens.
The target is the same in assay [17]. Briefly: immunohistochemistry, tissue microarray #72070, antigen retrieval H1; Breast stroma: 0 positive of 8 tested specimens.
For assay [18] the target is unchanged. Briefly: immunohistochemistry, tissue microarray #72070, antigen retrieval H1; Normal breast: 0 positive of 8 tested specimens.
Assay [19] has the same target. Briefly: immunohistochemistry, tissue microarray #72070, antigen retrieval H1; Placenta stroma: 0 positive of 1 tested specimen.
Assay [20] shares this target. Briefly: immunohistochemistry, tissue microarray #78070 (normal tissues), antigen retrieval H1; Parenchymal: 0 positive of 7 tested.
For assay [21], the target named is BST2 as expressed endogenously on the surface of human cell lines (B-LCL, MM1, U266, MCF-10A, MCF7, MDA-MB-231, T47D) (human) (UniProt Q10589). Briefly: flow cytometry dot plot, T47D-NS (non-silencing transduction) cells, 26F8 at 2 ug/ml and APC-conjugated secondary antibody.
Assay [22] deals with Recombinant human BST2 protein (Catalog number 13370-H07H, Sino Biological) (human) (UniProt Q10589). Briefly: BLI (Octet RED384), mAb 5 ug/ml captured on anti-mouse IgG Fc (AMC) biosensors, BST2 protein 15.625-1000 nM, 1:1 model, global fit.
Sequence of Recombinant human BST2 protein (Catalog number 13370-H07H, Sino Biological) (human) (Q10589 49-161 limits assumed): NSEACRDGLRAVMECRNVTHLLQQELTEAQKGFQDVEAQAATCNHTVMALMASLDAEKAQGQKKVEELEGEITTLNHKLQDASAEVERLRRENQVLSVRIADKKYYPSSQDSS
Assay [23] deals with BST2 as expressed endogenously on the surface of human cell lines (B-LCL, MM1, U266, MCF-10A, MCF7, MDA-MB-231, T47D) (human) (UniProt Q10589). Briefly: flow cytometry dot plot, T47D cells transduced with BST2-silencing shRNA, 26F8 at 2 ug/ml and APC-conjugated secondary antibody.
Assay [24] shares this target. Briefly: flow cytometry dot plot, T47D-NS (non-silencing transduction) cells, 26F8 at 2 ug/ml and APC-conjugated secondary antibody; Q3 6.94, Q4 21.4.
Assay [25] shares this target. Briefly: flow cytometry dot plot, T47D cells transduced with BST2-silencing shRNA, 26F8 at 2 ug/ml and APC-conjugated secondary antibody; Q3 58.1, Q4 26.6.
In assay [26] the target is T1, BST2 long isoform (BST2-D, full length BST2, 180 amino acids) expressed on HEK293 transfectants (human, UniProt Q10589 1-161).
T1 construct: also called HEK293-long; HEK293 WT-BST2
T1 sequence (Q10589 1-161 limits assumed): as the sequence (Q10589 1-161 limits assumed) above
Briefly: flow cytometry, hybridoma supernatant on HEK293-long cells. Here is the method:
For flow cytometry assays, cells were detached using 0.05% trypsin-EDTA, counted, washed and resuspend with FACS Buffer (PBS, 2% FBS, 2 mM EDTA). 2×10⁵ cells in 100 ul/well were placed in U-bottom 96-well plate and centrifuged (1000 RPM/3 min/4° C.). The buffer was discarded and 100 ul of the previously collected supernatants with selected monoclonal antibodies were added to the wells and incubated on ice for 30 minutes. After incubation, the plate was washed three times with FACS buffer and 50 ul of diluted (1/250) secondary antibody (Donkey anti-mouse Allophycocyanin (APC) conjugated) were added to the wells and incubated on ice for 20 minutes protected from light. The final wash was repeated 4 times, and the samples were transferred and analyzed at the South Campus Flow Cytometry & Cell Sorting Core Laboratory at MD Anderson Cancer Center. FACS data were analyzed with FlowJo™ Software—for Windows (Version 10.6.1. Ashland, Oreg.: Becton, Dickinson and Company; 2020).

The target of assay [27] is T2, BST2 long isoform peptide (BST2-D peptide), positions 133-156 (human).
T2 construct: Synthetic 24-mer; the free peptide (not KLH conjugated) coated the ELISA plates; also called BST2-Long (D) peptide; BST2 peptide
T2 peptide: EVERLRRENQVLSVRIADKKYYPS
Briefly: ELISA dilution assay, plate coated with BST2 peptide alone, hybridoma supernatant undiluted and 1/15, 1/225, 1/3375, OD 450 nm (axis unlabelled on the sheet). Here is the method: FIG. 5. Dilution assay. 26 positive clones were tested at serial dilutions as described under methods. Sixteen clones with the highest OD450 nm signal (those with squares around their names) were selected for further characterization. LA1-LA16 are clones picked at the first round of colony pickup; BM1-BM10 clones picked at the second round of colony pickup. PC is the positive control using anti-BST2 mAb (Clone 26F8) 1 ug/ml which recognizes all isoforms. Plates were coated with BST2 peptide alone.
To select the hybridomas capable of producing specific monoclonal antibodies against the BST2-D peptide, ELISA was performed. ELISA plates were coated with a 100 ul coating buffer, containing the BST2-D peptide in a concentration of 1 ug/ml, and incubated overnight at 4° C. Next day, ELISA plates were washed three times with PBST (PBS containing 0.05% v/v Tween®-20) and blocked with 100 ul of blocking buffer (PBS, 1% w/v BSA). After 1-hour blocking at room temperature, 50 ul supernatant from each of the 563 colonies were added to individual wells as the primary antibodies. Anti-BST2 mAb (Clone 26F8) [eBioscience] was used as a positive control and blank wells with secondary antibody only were performed in triplicates. Incubation proceeded for 1 hour followed by three washes. […] The reaction was stopped with H₂SO₄ 0.2N and the OD absorbance values were read at 450 nm. […]
(ELISA stands for enzyme-linked immunosorbent assay.)

We go through three molecules from patent publication US20230235074A1 (University of Texas, published 2023).

Broadly, the Kd is the concentration at which binding is half-saturated. As a reminder, the koff is the rate constant with which the complex falls apart. One may read the kon as the rate constant with which the complex forms.

Turning to “anti-BST2 monoclonal antibody clone 26F8 (eBioscience)”, the percentage of cell staining in [1] was found to be 99.6%; in assay [2], 97.1%; in [3] it was 34.7%; in assay [4], 96.6%; in assay [5], 99.7%; in assay [6] it was 27.7%. For the same molecule, the percentage of cell staining in assay [7] came to 28.4%. Moreover, the values for the percentage of stained cells in assay [8], in assay [10] and in assay [11] were 98.2%, 98.1% and 2.6%, respectively. Also, in assay [9], the percentage of cells stained came out at 96.7%. Further, the percent of cells stained turned out to be 98.7% in assay [12] and 37.7% in assay [13]. The detectable rate (% of tested specimens positive) in [14], in assay [16], in assay [17], in assay [18], in assay [19] and in assay [20] was 0% throughout. Besides, the percent of cells in quadrant Q1 (APC positive, GFP negative) in assay [15] was found to be 97.2%; in [21] it was 13.1%; in assay [23], 6.09%. In [22], the Kd was found to be 34.2 nM. The koff in assay [22] is 0.00132 s⁻¹. For the same molecule, the kon in [22] amounted to 38600 M⁻¹ s⁻¹. For the same molecule, the percent of cells in quadrant Q2 (APC positive, GFP positive) came out at 58.5% in assay [24] and 9.27% in [25].

B1: LA1 antibody (antibody, IgG1, V domains shown)
VH: EVQLQQSGPELVKPGASVKISCKTSGYTFTEDTMHWVKQSHGKSLEWIGGINPNKGGTSYNQKFKDKATLTVDKSSSTAYMELRSLTSEDSAVYYCATLVDYWGQGTTLTVSS
VL: DIVMTQSQKFMSTSVGDRVSVTCKASQNVGTNVAWYQQKPGQSPKALIHSASYRYSGVPDRFTGSGSGTDFTLTISNVQSEDLAEYFCQQYNSYPLTFGAGTKLELK
notes: Mouse hybridoma antibody, isotype IgG1, kappa; Tested as hybridoma supernatant
In the case of B1, the “percentage of cells stained” value in assay [26] came to 70.9%. For the same molecule, in assay [27], the binding result is given as “binds”.

B2: BM7 antibody (antibody, IgG1, V domains shown)
VH: QVTLKESGPGILKPSQTLSLTCSFSGFSLSTSGVGVGWIRQPSGKGLEWLAHIWWDDDEYYNPSLKSQLTISKDTSRNQVFLKITSVDTSDTATYYCARRYYGDAMDYWGQGTAVTVSS
VL: DVVMTQTPVSLPVSLGDQASISCRSTQSLVHSNGHTYLHWYLQKPGQSPKLLIYKVSNRFSGVPDRFSGTGSGTDFTLKISRVEAEDLGVYFCSQSTHVPYTFGGGTKLEIK
notes: Tested as hybridoma supernatant
Take B2: in [26], the “percentage of cells stained” value worked out at 39.8%.
